How the values were obtained:
[1] = molecular target: T1, histidyl t-RNA synthetase library interactor (pAD-GAL4 construct, EBML accession no. Z 11518) (human, UniProt P04386 761-881; P12081 2-509, limits assumed); test: yeast two-hybrid, retransfection of Hf7c
T1 construct: False positive of the Hf7c screen
T1 sequence (looked up): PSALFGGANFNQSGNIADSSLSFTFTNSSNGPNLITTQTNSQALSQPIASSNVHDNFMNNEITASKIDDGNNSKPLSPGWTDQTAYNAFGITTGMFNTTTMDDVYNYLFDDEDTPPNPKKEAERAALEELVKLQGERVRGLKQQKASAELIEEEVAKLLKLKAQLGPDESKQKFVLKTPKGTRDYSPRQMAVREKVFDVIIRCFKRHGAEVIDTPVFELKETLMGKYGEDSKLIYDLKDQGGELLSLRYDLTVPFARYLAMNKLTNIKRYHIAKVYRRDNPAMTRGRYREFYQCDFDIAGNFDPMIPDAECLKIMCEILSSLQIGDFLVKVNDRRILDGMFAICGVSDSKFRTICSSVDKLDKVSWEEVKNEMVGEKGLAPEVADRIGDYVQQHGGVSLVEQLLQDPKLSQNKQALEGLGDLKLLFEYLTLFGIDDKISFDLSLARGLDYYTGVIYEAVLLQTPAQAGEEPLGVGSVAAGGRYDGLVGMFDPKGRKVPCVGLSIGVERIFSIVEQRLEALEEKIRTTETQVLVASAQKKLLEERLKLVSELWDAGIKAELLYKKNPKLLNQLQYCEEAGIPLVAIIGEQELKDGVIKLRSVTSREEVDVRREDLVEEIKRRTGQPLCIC
Procedure: (§1) Transformants were plated onto solid SD/-His-Trp-Leu (incorporating 35 mM 3-AT in the case of Y190 transformants) and incubated for up to 14 days at 30° C. After 3 initial days of growth, plates were inspected daily, and His+ colonies were transferred to SD/-His-Trp-Leu +0.07 M potassium phosphate pH 7+40 µg/ml X-gal plates which incorporated 35 mM 3-AT in the case of Y190 co-transformants. Colonies which remained His+, and in the case of Y190 co-transformants, were also lacZ+, were re-streaked onto fresh plates to check that all colonies were of uniform phenotype. After 6 days incubation at 30° C., yeast colonies were directly harvested, and plasmid DNA was isolated and used to transfect XL1 Blue. Mini-preparations of plasmid DNA were performed for at least 5 XL1 Blue colonies per transfection, with the results of restriction digests differentiating potential interactors from bait plasmids. […] Phenotypes of resulting co-transfectants were assayed quantitatively and/or qualitatively as described above.

[2] = molecular target: T2, RING10 proteasome subunit library interactor (pAD-GAL4 construct, GenBank accession no. X62598) (human, UniProt P04386 761-881; P28062 73-276, limits assumed); test: yeast two-hybrid, retransfection of Hf7c
T2 construct: False positive of the Hf7c screen
T2 sequence (looked up): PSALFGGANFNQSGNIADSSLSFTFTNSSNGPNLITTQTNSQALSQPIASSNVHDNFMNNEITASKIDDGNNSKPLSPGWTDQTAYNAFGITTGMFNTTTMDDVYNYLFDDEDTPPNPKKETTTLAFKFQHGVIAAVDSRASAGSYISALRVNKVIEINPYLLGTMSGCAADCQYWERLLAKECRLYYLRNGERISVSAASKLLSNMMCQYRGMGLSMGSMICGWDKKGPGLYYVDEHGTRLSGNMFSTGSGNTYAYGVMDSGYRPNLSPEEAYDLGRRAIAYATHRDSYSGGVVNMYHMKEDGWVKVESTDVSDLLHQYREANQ
Procedure: as §1

[3] = molecular target: T3, eukaryotic initiation factor 4AII library interactor (pAD-GAL4 construct, DNA Database of Japan accession no. … (human, UniProt P04386 761-881; Q14240 1-407, limits assumed); test: yeast two-hybrid, retransfection of Hf7c
T3 construct: False positive of the Hf7c screen
Procedure: as §1

[4] = molecular target: T4, hD53 interactor (GAL4 activation domain fusion, pACT2hD53) (human, UniProt P04386 768-881 (Saccharomyces cerevisiae entry)); test: yeast two-hybrid in Y190, β-galactosidase assay
T4 construct: range 768-881
T4 sequence: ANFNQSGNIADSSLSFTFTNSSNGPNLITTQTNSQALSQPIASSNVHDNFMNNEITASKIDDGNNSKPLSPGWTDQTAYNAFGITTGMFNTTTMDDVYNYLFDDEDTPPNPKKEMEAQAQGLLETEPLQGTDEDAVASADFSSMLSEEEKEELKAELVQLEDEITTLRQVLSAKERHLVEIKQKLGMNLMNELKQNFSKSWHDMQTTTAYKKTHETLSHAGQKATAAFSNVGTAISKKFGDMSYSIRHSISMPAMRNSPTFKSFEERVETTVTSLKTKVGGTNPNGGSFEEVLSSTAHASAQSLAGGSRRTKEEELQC
Procedure: Interactions between baits and interactors were assessed by qualitatively and/or quantitatively determining HIS3 and lacZ reporter gene activity in Y190 co-transfectants. Reporter gene activities were assessed qualitatively by observing the growth and color development of Y190 co-transfectants on solid SD media lacking His, Trp and Leu (SD/-His-Trp-Leu), and incorporating 0.07 M potassium phosphate pH 7, 35 mM 3-AT, and 40 µg/ml X-gal. For quantitative assessment of interactions, β-galactosidase activity was measured using the substrate o-nitrophenyl β-D-galactopyranoside (ONPG) in liquid cultures (SD/-His-Trp-Leu +35 mM 3-AT) of Y190 co-transfectants.

Measured: binding result

B1: mD52(95-185) bait (GAL4 DNA-binding domain fusion, pAS2-1mD52(95-185)) (other)
chain: MKLLSSIEQACDICRLKKLKCSKEKPKCAKCLKNNWECRYSPKTKRSPLTRAHLTEVESRLERLEQLFLLIFPREDLDMILKMDSLQDIKALLTGLFVQDNVNKDAVTDRLASVETDMPLTLRQHRISATSSSEESSNKGQRQLTVSAYKKTSETLSQAGQKASAAFSSVGSVITKKLEDVKNSPTFKSFEEKVENLKSKVGGAKPAGGDFGEVLNSTANATSTMTTEPPPEQMTESP
notes: also called C-terminal half of mD52
no binding: all assays above

From US6458943 (INSTITUT NATIONAL DE LA SANTE ET DE LA RECHERCHE MEDICALE, dated 2002)
